According to US20240132589A1 (ONCORESPONSE, published 2024):

Key:
[1] = molecular target: T1, Human LILRB2 on transiently transfected HEK293-6E cells (human, UniProt Q8N423 22-597); experiment: flow cytometry, transiently transfected HEK293-6E cells
T1 construct: whole, on cells; also called hLILRB2
Experimental: (§1) To determine that the anti-LILRB2 antibodies specifically bind to LILRB2 and not other LILRB and LILRA family members, a cross-reactivity assay was performed. Cross-reactivity of the LILRB2 antibodies to other LILRB proteins was assessed by antibody binding to transiently transfected HEK293-6E cells, measured by flow cytometry. Binding was evaluated to HEK293-6E cells transiently transfected with human LILRB-1, -2, -3, -4, and 5 plasmids (Origene, Nos. RC219949, RC217935, RC211228, RC220932, RC206516) or to cells transiently transfected with human LILRA-1, -2, -4, -5, and -6 plasmids (Origene, Nos. RC210808, RC205626, RC220452, RC212310 RC212965). […] Murine primary antibodies to LILRA and LILRB targets and corresponding isotype controls were used to confirm specific binding of all targets tested (R&D Systems) while an AF647 F(ab′)₂ fragment goat anti-mouse antibody (Jackson ImmunoResearch, No. 115-606-062) was used for the detection of bound positive control antibodies. No binding of B2A-IgG4 or B2A-IgG1 to LILRB-1, -3, -4, or -5 was observed, and no binding of either antibody to LILRA-1, -2, -4, -5, or -6 was observed, confirming specificity of these antibodies.
(§2) Select humanized variant antibodies were tested for their ability to bind other LILRB or LILRA family members, using the method and commercially available positive control antibodies of Example 5.

[2] = molecular target: T2, Human LILRA1 on transiently transfected HEK293-6E cells (human, UniProt O75019 17-489); experiment: as above
T2 construct: whole, on cells; also called hLILRA1
Experimental: as §1, §2

[3] = molecular target: T3, Human LILRA2 on transiently transfected HEK293-6E cells (human, UniProt Q8N149 24-483); experiment: as above
T3 construct: whole, on cells; also called hLILRA2
Experimental: as §1, §2

[4] = molecular target: T4, Human LILRA4 on transiently transfected HEK293-6E cells (human, UniProt P59901 24-499); experiment: as above
T4 construct: whole, on cells; also called hLILRA4
Experimental: as §1, §2

[5] = molecular target: T5, Human LILRA5 on transiently transfected HEK293-6E cells (human, UniProt A6NI73 42-299); experiment: as above
T5 construct: whole, on cells; also called hLILRA5
Experimental: as §1, §2

[6] = molecular target: T6, Human LILRA6 on transiently transfected HEK293-6E cells (human, UniProt Q6PI73 24-481); experiment: as above
T6 construct: whole, on cells; also called hLILRA6
Experimental: as §1, §2

[7] = molecular target: T7, Human LILRB1 on transiently transfected HEK293-6E cells (human, UniProt Q8NHL6 24-650); experiment: as above
T7 construct: whole, on cells; also called hLILRB1
Experimental: as §1, §2

[8] = molecular target: T8, Human LILRB3 on transiently transfected HEK293-6E cells (human, UniProt O75022 24-631); experiment: as above
T8 construct: whole, on cells; also called hLILRB3
Experimental: as §1, §2

[9] = molecular target: T9, Human LILRB5 on transiently transfected HEK293-6E cells (human, UniProt O75023 24-590); experiment: as above
T9 construct: whole, on cells; also called hLILRB5
Experimental: as §1, §2

[10] = molecular target: T10, Recombinant human LILRB2 protein (ELISA antigen) (human, UniProt Q8N423 22-460); experiment: ELISA, plate-coated recombinant human LILRB2
T10 construct: also called LILRB2-His; recombinant LILRB2
Experimental: (§3) To confirm binding to human and cynomolgus LILRB2, antibodies in supernatants were evaluated for binding by enzyme-linked immunosorbent assay (ELISA). Recombinant LILRB2 proteins (human: SEQ ID NO: 48; cynomolgus) were diluted in PBS to 2 μg/mL and added to 384-well high-binding ELISA plates (Greiner Bio-One Microlon™) at 25 μL/well and incubated at 4° C. overnight. The plates were washed three times with Wash Buffer (0.05% Tween® 20 in PBS), using a microplate washer and then blocked with 90 μL/well of ELISA Blocking Buffer A (1% BSA in PBS) for 1 hour at room temperature (RT). After blocking, 25 μL/well of LILRB2 antibodies or isotype control were added to the plates and incubated for 1 hour at RT. After primary antibody binding, plates were washed three times with Wash Buffer using a microplate washer. Secondary detection antibody (HRP-goat anti-rabbit Fab fragment) was diluted to 1:3000 in assay diluent (1% BSA in PBS) and 25 μL/well was added to plates and incubated at RT protected from light for 1 hour. Following incubation, plates were washed four times with Wash Buffer, using a microplate washer. After removal of the final wash, 25 μL/well of 1-Step™ Ultra TMB-ELISA Substrate Solution (Thermo Fisher, No. 34028) was added and plates were incubated for 5-10 min at RT, protected from light. After development, the reaction was stopped by addition of 25 μL/well of 0.3 M HCl, and plates were read using an EnVision (Perkin Elmer) microplate reader at 450 nm. EC₅₀ values were calculated based on log concentration of the primary antibodies at optical density at 450 nm.
Select humanized variant antibodies were purified and tested for their ability to bind human LILRB2 by ELISA, using the method described in Example 2, and binding to HEK293T cells expressing human LILRB2, using the method described in Example 4. Representative data are shown for IgG4 variants in Table 6.

[11] = molecular target: T10, Recombinant human LILRB2 protein (ELISA …); experiment: ELISA, immobilized LILRB2-His; conditioned media of transient transfections
Experimental: as §3
Twenty-five IgG4 variants were expressed in mammalian cell culture as a combinatorial library of the five light and five heavy chains. In addition, B2A-IgG4 was included as a transfection control. The conditioned media from these transient transfections were assayed for human IgG concentration. A plate-based ELISA (see Example 2) was performed in which LILRB2-His was immobilized, and binding of humanized mAb variants was detected via an anti-human IgG4 HRP-labeled secondary antibody. The parental rabbit/human chimera clone transfection served as the benchmark EC₅₀ positive control.

T4 sequence (P59901 24-499): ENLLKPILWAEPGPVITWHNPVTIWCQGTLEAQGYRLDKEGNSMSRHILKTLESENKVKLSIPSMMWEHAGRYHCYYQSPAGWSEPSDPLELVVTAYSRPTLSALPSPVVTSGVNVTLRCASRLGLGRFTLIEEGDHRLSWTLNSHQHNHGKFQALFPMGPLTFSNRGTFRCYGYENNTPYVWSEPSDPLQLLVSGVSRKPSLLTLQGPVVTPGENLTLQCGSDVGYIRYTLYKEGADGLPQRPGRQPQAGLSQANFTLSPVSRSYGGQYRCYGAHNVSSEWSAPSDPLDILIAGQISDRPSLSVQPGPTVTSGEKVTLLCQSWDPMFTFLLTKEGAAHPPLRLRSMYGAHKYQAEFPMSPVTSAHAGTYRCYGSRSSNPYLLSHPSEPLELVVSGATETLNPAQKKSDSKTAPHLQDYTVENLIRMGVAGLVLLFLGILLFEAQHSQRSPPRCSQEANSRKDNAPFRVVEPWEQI
T1 sequence (Q8N423 22-597): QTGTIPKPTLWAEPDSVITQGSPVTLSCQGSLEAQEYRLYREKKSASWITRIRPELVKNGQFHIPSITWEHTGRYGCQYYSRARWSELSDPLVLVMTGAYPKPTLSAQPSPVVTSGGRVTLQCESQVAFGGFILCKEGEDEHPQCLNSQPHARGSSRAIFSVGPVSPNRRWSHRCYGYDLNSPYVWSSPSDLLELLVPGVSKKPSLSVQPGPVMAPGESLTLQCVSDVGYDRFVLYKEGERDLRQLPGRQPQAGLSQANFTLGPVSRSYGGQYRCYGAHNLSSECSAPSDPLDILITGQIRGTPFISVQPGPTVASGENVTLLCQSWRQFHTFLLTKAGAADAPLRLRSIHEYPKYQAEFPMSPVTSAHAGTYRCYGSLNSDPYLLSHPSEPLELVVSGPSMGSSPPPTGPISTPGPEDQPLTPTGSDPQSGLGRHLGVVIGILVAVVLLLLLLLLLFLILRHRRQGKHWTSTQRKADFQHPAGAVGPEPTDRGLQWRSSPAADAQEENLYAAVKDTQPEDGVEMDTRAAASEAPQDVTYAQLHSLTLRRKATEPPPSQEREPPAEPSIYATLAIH
T2 sequence (O75019 17-489): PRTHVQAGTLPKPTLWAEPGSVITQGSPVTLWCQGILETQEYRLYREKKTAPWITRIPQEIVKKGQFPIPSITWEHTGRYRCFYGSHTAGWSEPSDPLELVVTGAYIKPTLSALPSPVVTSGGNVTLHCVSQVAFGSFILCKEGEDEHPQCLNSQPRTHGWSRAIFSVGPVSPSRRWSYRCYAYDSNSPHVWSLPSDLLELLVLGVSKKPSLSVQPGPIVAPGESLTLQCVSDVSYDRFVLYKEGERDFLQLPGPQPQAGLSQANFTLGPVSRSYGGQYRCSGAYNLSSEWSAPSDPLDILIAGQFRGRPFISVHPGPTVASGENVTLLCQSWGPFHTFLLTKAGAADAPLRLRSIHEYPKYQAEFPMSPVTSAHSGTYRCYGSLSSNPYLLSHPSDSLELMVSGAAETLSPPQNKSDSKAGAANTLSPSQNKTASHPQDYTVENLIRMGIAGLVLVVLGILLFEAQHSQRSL
T3 sequence (Q8N149 24-483): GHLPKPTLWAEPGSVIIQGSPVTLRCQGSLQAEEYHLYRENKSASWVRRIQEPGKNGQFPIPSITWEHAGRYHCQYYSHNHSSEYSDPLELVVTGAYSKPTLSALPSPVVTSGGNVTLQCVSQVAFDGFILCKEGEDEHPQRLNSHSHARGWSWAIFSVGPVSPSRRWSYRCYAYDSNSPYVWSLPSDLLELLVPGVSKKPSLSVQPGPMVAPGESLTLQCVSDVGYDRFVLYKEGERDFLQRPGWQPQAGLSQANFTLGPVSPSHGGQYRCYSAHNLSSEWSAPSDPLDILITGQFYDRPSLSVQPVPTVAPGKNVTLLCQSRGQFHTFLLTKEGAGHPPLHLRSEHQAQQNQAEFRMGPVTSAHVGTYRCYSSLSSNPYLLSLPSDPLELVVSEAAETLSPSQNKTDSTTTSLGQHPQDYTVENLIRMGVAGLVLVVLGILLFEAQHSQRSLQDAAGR
T9 sequence (O75023 24-590): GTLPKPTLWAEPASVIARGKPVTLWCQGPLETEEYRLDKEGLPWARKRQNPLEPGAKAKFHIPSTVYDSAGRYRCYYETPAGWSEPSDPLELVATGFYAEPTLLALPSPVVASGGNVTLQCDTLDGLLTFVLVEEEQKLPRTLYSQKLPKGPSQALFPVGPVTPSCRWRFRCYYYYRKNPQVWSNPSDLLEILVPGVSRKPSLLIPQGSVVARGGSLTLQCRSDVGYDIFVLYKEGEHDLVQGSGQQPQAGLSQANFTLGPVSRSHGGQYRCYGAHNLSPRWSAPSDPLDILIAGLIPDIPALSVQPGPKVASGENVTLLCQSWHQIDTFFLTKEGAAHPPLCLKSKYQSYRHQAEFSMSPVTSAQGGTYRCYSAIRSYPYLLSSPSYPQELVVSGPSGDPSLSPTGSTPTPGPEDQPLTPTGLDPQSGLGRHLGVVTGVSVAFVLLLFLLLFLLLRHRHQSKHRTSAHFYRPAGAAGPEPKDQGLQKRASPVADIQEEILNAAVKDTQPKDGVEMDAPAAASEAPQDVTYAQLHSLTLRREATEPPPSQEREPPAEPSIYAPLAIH
T7 sequence (Q8NHL6 24-650): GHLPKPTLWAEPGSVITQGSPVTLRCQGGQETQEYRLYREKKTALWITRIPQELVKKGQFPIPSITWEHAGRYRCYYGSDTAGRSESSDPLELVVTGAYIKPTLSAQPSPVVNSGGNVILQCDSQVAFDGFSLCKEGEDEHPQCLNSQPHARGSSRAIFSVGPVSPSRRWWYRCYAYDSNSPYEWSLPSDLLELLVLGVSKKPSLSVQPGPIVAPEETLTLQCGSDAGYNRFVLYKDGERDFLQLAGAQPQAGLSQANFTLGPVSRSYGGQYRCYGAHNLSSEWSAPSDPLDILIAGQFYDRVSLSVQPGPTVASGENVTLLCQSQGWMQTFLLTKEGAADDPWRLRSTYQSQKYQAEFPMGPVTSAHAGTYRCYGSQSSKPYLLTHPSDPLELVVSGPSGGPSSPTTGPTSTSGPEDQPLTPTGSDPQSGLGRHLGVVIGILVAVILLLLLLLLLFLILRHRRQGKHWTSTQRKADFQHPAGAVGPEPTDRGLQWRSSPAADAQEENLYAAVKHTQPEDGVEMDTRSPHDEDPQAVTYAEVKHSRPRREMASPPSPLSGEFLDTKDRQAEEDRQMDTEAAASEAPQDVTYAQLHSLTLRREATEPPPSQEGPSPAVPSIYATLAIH
T5 sequence (A6NI73 42-299): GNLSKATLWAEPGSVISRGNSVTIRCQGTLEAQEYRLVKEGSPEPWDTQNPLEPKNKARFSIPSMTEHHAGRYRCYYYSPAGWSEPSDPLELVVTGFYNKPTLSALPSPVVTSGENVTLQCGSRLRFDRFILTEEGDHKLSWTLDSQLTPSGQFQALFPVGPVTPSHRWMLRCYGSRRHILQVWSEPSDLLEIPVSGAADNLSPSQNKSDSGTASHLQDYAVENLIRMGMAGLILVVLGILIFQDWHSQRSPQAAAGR
T10 sequence (Q8N423 other isoform, or with tags, fused parts or gaps limits assumed): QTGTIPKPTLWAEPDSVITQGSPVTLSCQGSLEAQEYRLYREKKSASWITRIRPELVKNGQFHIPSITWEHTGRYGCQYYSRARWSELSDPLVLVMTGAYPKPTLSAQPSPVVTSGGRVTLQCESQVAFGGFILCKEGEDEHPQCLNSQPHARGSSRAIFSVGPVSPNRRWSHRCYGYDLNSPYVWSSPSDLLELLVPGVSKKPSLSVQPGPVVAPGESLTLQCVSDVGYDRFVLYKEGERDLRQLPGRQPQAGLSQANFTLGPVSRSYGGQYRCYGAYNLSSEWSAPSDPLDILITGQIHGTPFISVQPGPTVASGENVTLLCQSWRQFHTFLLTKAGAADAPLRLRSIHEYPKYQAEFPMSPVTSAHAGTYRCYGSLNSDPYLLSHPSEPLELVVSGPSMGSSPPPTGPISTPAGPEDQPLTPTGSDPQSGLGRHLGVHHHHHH
T6 sequence (Q6PI73 24-481): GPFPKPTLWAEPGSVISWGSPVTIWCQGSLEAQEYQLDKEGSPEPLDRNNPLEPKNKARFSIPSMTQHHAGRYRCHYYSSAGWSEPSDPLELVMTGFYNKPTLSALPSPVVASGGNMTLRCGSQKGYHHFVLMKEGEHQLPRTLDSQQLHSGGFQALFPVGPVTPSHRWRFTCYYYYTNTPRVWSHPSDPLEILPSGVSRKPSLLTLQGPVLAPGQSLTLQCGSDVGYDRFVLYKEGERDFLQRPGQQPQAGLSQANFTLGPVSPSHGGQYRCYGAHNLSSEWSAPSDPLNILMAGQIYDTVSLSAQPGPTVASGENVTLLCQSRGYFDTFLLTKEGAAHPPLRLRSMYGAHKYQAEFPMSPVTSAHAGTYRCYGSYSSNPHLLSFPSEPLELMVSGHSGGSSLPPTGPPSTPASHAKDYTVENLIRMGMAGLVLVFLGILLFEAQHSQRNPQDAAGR

Row | Binder | Bmax (MFI) [1] [MFI] | Bmax (MFI) [2] [MFI] | Bmax (MFI) [3] [MFI] | BMAX [gMFI] [4] [gMFI] | Bmax (MFI) [5] [MFI] | Bmax (MFI) [6] [MFI] | Bmax (MFI) [7] [MFI] | Bmax (MFI) [8] [MFI] | Bmax (MFI) [9] [MFI] | EC50 [10] [ng/mL] | EC50 [11] [ng/mL]
1 | B2A-IgG1 (antibody, Rabbit variable regions on human IgG1 / kappa constant regions; AF647-conjugated in some flow assays; also called B2A-IgG1 chimera; anti-LILRB2 B2A-IgG1) heavy: not shown light: DVVMTQTPSSVSAALGGTVTIKCQASQSIGSNLAWYQLKPGQRPKLLIYAAATLASGGSSRFKGSGSGTDFTLTISDLECADAATYYCQSYVSGSSDVAFGGGTEVVVKRTVAAPSVFIFPPSDEQLKSGTASVVCLLNNFYPREAKVQWKVDNALQSGNSQESVTEQDSKDSTYSLSSTLTLSKADYEKHKVYACEVTHQGLSSPVTKSFNRGEC | 11300 | 837 | 40.4 | 104 | 124 | 211 | 41.9 | 163 | 147 |  | 
2 | B2A-IgG4 (antibody, Rabbit variable regions on human IgG4 / kappa constant regions; also called B2A-IgG4 chimera; Parent B2A-IgG4) heavy: not shown light: DVVMTQTPSSVSAALGGTVTIKCQASQSIGSNLAWYQLKPGQRPKLLIYAAATLASGGSSRFKGSGSGTDFTLTISDLECADAATYYCQSYVSGSSDVAFGGGTEVVVKRTVAAPSVFIFPPSDEQLKSGTASVVCLLNNFYPREAKVQWKVDNALQSGNSQESVTEQDSKDSTYSLSSTLTLSKADYEKHKVYACEVTHQGLSSPVTKSFNRGEC |  |  |  |  |  |  |  |  |  | 2.35 | 2.74
3 | B2H1-55 (antibody, V domains shown, Humanized variant, human IgG1 / kappa; also called humanized variant B2H1-55; humanized LILRB2 antibody B2H1-55) VH: EVQLLESGGGLVQPGTSLTLSCAASGFSLSTYAMSWVRQAPGKGLEWIGWIYNDGSTYYAAWAKGRFTISKDTSKTTLYLQITSLRAEDTATYFCAREGDYIGYFNIWGQGTLVTVSS VL: DVVMTQTPSSVSAALGGTVTIKCQASQSIGSNLAWYQLKPGQRPKLLIYAAATLASGGSSRFKGSGSGTDFTLTISSLEPADAATYYCQSYVSGSSDVAFGGGTEVVVK | 11000 | 783 | 37.7 | 112 | 129 | 214 | 41.4 | 154 | 138 |  | 
